From the supplement of paper PMC10201428 come the findings set out here.

In data set [1] the test system is VchCAST RNA-guided transposition machinery (E. coli BL21(DE3) host, lacZ target). The experiment in a line: relative integration efficiency (T-LR orientation) vs wild-type transposon end (log2 (normalized fold change)); transposon end mutated: right end (5 bp flank + 75 bp right end); higher = more efficient transposition. In outline:
(§1)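 Relative integration efficiency is a fold change of output over input barcode abundance, normalised to reference barcodes and log-transformed. Input plasmids and genomic integration junctions were PCR-amplified and Illumina-sequenced from E. coli BL21(DE3) co-transformed with a T7-driven effector plasmid and pUC57 donor pools of 1549 left-end or 1849 right-end transposon variants. Plating was done with 0.1 mM IPTG at 37°C for 18 h, with two biological output replicates and four reference barcodes.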

The test system is the same in data set [2]. The experiment in a line: relative integration efficiency (T-RL orientation) vs wild-type transposon end (log2 (normalized fold change)); transposon end mutated: right end (5 bp flank + 75 bp right end); higher = more efficient transposition. The gist of the method: as §1

± gives the standard deviation of the averaged measurements.

Regarding “ACATTTGTTGATACAACCTAAAAATGATAATTACACCCATAAATTGATAATTATCACACCCATAAATTGATATTGCCTCTGATCATAGTCAGACCAACATTGCTACGACCCGTATTCGCACCGACAC”, the “relative integration efficiency (log2)” value in data set [1] is -0.819 ± 0.32; in data set [2], -0.616 ± 0.0067.
Taken in the same sequence, the figures for “ACATTTGTTGATACAACCTATTAATGATAATTACACCCATAAATTGATAATTATCACACCCATAAATTGATATTGCCTCTGATCATAGTCAGACCAACATTGCTACGACCCGTATTCGCACCGACAC” were -1.46 ± 0.16 and -0.905 ± 0.052.
For “ACATTTGTTGATACAACCTTAAAATGATAATTACACCCTTAAATTGATAATTATCACACCCTTAAATTGATATTGCCTCTGATCATAGTCAGACCAACATTGCTACGACCCGTATTCGCACCGACAC”, in that order: -0.505 ± 0.42 and -1.34 ± 0.22.
Taken in the same sequence, the figures for “ACATTTGTTGATACAACGATAAAATGATAATTACACCGATAAATTGATAATTATCACACCGATAAATTGATATTGCCTCTGATCATAGTCAGACCAACATTGCTACGACCCGTATTCGCACCGACAC” were 0.086 ± 0.12 and -0.127 ± 0.12.
As for “ACATTTGTTGATACAACGTATAAATGATAATTACACCCATAAATTGATAATTATCACACCCATAAATTGATATTGCCTCTGATCATAGTCAGACCAACATTGCTACGACCCGTATTCGCACCGACAC”, the “relative integration efficiency (log2)” value is -2.43 ± 0.46 in data set [1] and -1.91 ± 0.13 in data set [2].
Consider “ACATTTGTTGATACAACGTTAAAATGATAATTACACCCATAAATTGATAATTATCACACCCATAAATTGATATTGCCTCTGATCATAGTCAGACCAACATTGCTACGACCCGTATTCGCACCGACAC”, for which the figures for the “relative integration efficiency (log2)” value in data set [1] and in data set [2] were -1.02 ± 0.3 and -0.928 ± 0.01, respectively.
Taken in the same sequence, the figures for “ACATTTGTTGATACAAGCATAAAATGATAATTACACGCATAAATTGATAATTATCACACGCATAAATTGATATTGCCTCTGATCATAGTCAGACCAACATTGCTACGACCCGTATTCGCACCGACAC” were -0.218 ± 0.08 and -0.3912 ± 0.0011.
For “ACATTTGTTGATACAAGGATAAAATGATAATTACACCCATAAATTGATAATTATCACACCCATAAATTGATATTGCCTCTGATCATAGTCAGACCAACATTGCTACGACCCGTATTCGCACCGACAC”, in that order: -0.87 ± 0.12 and -0.223 ± 0.044.
For “ACATTTGTTGATACAAGGTAAAAATGATAATTACACCCATAAATTGATAATTATCACACCCATAAATTGATATTGCCTCTGATCATAGTCAGACCAACATTGCTACGACCCGTATTCGCACCGACAC”, in that order: -2.67 ± 0.22 and -2.26 ± 0.11.
As to “ACATTTGTTGATACACAACGCCCCGTCGCCGGCACAAACGCCCGGTCGCCGGCGACACAAACGCCCGGTCGCGGTAAGAGGATCATAGTCAGACCAACATTGCTACGACCCGTATTCGCACCGACAC”, the “relative integration efficiency (log2)” value in data set [1] is -5.17 ± 0.85; in data set [2], -7.89 ± 0.53.
Taken in the same sequence, the figures for “ACATTTGTTGATACACAACTAAAATGATAATTACACCCATAAATTGATAATTATCACACCCATAAATTGATATTGCCTCTGATCATAGTCAGACCAACATTGCTACGACCCGTATTCGCACCGACAC” were -3.43 ± 1.4 and -3.13 ± 0.19.
Taken in the same sequence, the figures for “ACATTTGTTGATACACACATAAAATGATAATTACACCCATAAATTGATAATTATCACACCCATAAATTGATATTGCCTCTGATCATAGTCAGACCAACATTGCTACGACCCGTATTCGCACCGACAC” were -0.763 ± 0.33 and -0.5621 ± 0.0046.
For “ACATTTGTTGATACACCCATAAAATGATAATTACAACCATAAATTGATAATTATCACAACCATAAATTGATATTGCCTCTGATCATAGTCAGACCAACATTGCTACGACCCGTATTCGCACCGACAC”, in that order: -0.642 ± 0.019 and -0.707 ± 0.2.
With “ACATTTGTTGATACACCCATAAATTGATAATTACAACCATAAAATGATAATTATCACAACCATAAAATGATAATTACTCTGATCATAGTCAGACCAACATTGCTACGACCCGTATTCGCACCGACAC”, the “relative integration efficiency (log2)” value in data set [1] is -0.939 ± 0.36; in data set [2], -0.638 ± 0.31.
Turning to “ACATTTGTTGATACACCCATAAATTGATAATTACAACCATAAAATGATAATTATCACAACCATAAAGTGATATTTACTCTGATCATAGTCAGACCAACATTGCTACGACCCGTATTCGCACCGACAC”, the figures for the “relative integration efficiency (log2)” value in data set [1] and in data set [2] were -0.912 ± 0.79 and -0.736 ± 0.32, respectively.
For “ACATTTGTTGATACACCCATAAATTGATAATTACAACCATAAAATGATAATTATCACAACCATAAGTTGATATTTTCTCTGATCATAGTCAGACCAACATTGCTACGACCCGTATTCGCACCGACAC”, in that order: -0.36 ± 0.66 and -0.795 ± 0.13.
For “ACATTTGTTGATACACCCATAAATTGATAATTACAACCATAAAATGATAATTATCACAACCATATATTGATATCTCCTCTGATCATAGTCAGACCAACATTGCTACGACCCGTATTCGCACCGACAC”, in that order: -0.397 ± 0.063 and -0.596 ± 0.35.
Consider “ACATTTGTTGATACACCCATAAATTGATAATTACAACCATAAAATGATAATTATCACACCCATAAATTGATAATTACTCTGATCATAGTCAGACCAACATTGCTACGACCCGTATTCGCACCGACAC”, for which the results for the “relative integration efficiency (log2)” value in data set [1] and in data set [2] were -0.234 ± 0.37 and -0.421 ± 0.15, respectively.
For “ACATTTGTTGATACACCCATAAATTGATAATTACAACCATAAAATGATAATTATCACACCCATAAATTGATATTGCCTCTGATCATAGTCAGACCAACATTGCTACGACCCGTATTCGCACCGACAC”, in that order: -0.673 ± 0.45 and -0.475 ± 0.089.
Taken in the same sequence, the figures for “ACATTTGTTGATACACCCATAAATTGATAATTACAACCATAAAATGATAATTATCAGTGGGTATTTAACTATAACGCTCTGATCATAGTCAGACCAACATTGCTACGACCCGTATTCGCACCGACAC” were 2.58 ± 0.045 and -0.217 ± 0.012.
For “ACATTTGTTGATACACCCATAAATTGATAATTACAACCATAAAGTGATATTTATCACAACCATAAAATGATAATTACTCTGATCATAGTCAGACCAACATTGCTACGACCCGTATTCGCACCGACAC”, in that order: -0.432 ± 0.17 and -0.58 ± 0.22.
Consider “ACATTTGTTGATACACCCATAAATTGATAATTACAACCATAAAGTGATATTTATCACAACCATAAAGTGATATTTACTCTGATCATAGTCAGACCAACATTGCTACGACCCGTATTCGCACCGACAC”, for which the “relative integration efficiency (log2)” value in data set [1] is -0.828 ± 0.015; in data set [2], -0.483 ± 0.29.
For “ACATTTGTTGATACACCCATAAATTGATAATTACAACCATAAAGTGATATTTATCACAACCATAAGTTGATATTTTCTCTGATCATAGTCAGACCAACATTGCTACGACCCGTATTCGCACCGACAC”, in that order: -0.743 ± 0.17 and -0.418 ± 0.21.
For “ACATTTGTTGATACACCCATAAATTGATAATTACAACCATAAAGTGATATTTATCACAACCATATATTGATATCTCCTCTGATCATAGTCAGACCAACATTGCTACGACCCGTATTCGCACCGACAC”, in that order: 0.318 ± 0.42 and -0.0337 ± 0.3.
Taken in the same sequence, the figures for “ACATTTGTTGATACACCCATAAATTGATAATTACAACCATAAAGTGATATTTATCACACCCATAAATTGATAATTACTCTGATCATAGTCAGACCAACATTGCTACGACCCGTATTCGCACCGACAC” were -0.96 ± 0.16 and -0.494 ± 0.16.
